Assay results as given in patent publication US20250221953A1 (The University of Chicago, priority 2022, published 2025).

Test system: Jurkat T cells
Assay type: cell-based, human
Conditions: IL-2 production level in treated group compared to control group; 48 hours treatment, then anti-CD3/anti-CD28 12 hours
Description: Two preliminary screens were designed and performed.
To construct “blood chemical compound library for cell-based screening purposes, components such as antibodies that are difficult to distinguish due to a wide variety, and some supplements that only function at a whole organism level including fish oils and herbs were excluded. Physiological ranges of serum levels of individual blood chemicals are available in the human metabolome database (https://hmdb.ca/) and applied in the experimental design. For first screen 1a, Jurkat T cells were treated with blood chemical library for 48 hours and then activated with 2.5 μg/mL anti-CD3 and 0.5 μg/mL anti-CD28 antibodies for another 12 hours, followed by measurement of IL-2 level in medium supernatant using ELISA kit (Biolegend). For first screen 1b, 1×10^5 PD-1^+ Jurkat T cells were co-cultured with 2×10^4 H596 (PD-L1^+) cells in a well of 96-well plate for 60 hours, and then activated with 2.5 μg/mL anti-CD3 and 0.5 μg/mL anti-CD28 antibodies for another 12 hours, followed by measurement of IL-2 level in medium supernatant using ELISA kit. Please also refer to Resources Table and Table 1-2 for more details.

B1: LIPASE FROM PORCINE PANCREAS (protein, UniProt P00591 1-450, looked up)
Pancreatic triacylglycerol …: SEVCFPRLGCFSDDAPWAGIVQRPLKILPWSPKDVDTRFLLYTNQNQNNYQELVADPSTITNSNFRMDRKTRFIIHGFIDKGEEDWLSNICKNLFKVESVNCICVDWKGGSRTGYTQASQNIRIVGAEVAYFVEVLKSSLGYSPSNVHVIGHSLGSHAAGEAGRRTNGTIERITGLDPAEPCFQGTPELVRLDPSDAKFVDVIHTDAAPIIPNLGFGMSQTVGHLDFFPNGGKQMPGCQKNILSQIVDIDGIWEGTRDFVACNHLRSYKYYADSILNPDGFAGFPCDSYNVFTANKCFPCPSEGCPQMGHYADRFPGKTNGVSQVFYLNTGDASNFARWRYKVSVTLSGKKVTGHILVSLFGNEGNSRQYEIYKGTLQPDNTHSDEFDSDVEVGDLQKVKFIWYNNNVINPTLPRVGASKITVERNDGKVYDFCSQETVREEVLLTLNPC
B1 was tested, and the “Relative changed percentage (%)” value was −9.403%.
